Test results as given in patent publication US10441663B2, “Methods for treating cancer” (Bicycle Therapeutics Limited, priority 2016, dated 2019).
*1 amine or outer side, *2 acyl side, *3 side chain or, on linkers, in order; H or OH if unused. Where a SMILES comes first, the peptide text is derived from it. Bridges are numbered along the chain shown (N, C = ends). [ ]: non-standard residue; d: D form. The star is where a group is joined. ξ: configuration not given here. X2 = COc1cc2cc(c1Cl)N(C)C(=O)C[C@H](OC(=O)[C@H](C)N(C)C(=O)CCSC1CC(=O)N(CC3CCC(C(=O)*)CC3)C1=O)[C@@]1(C)O[C@H]1[C@H](C)[C@@H]1C[C@@](O)(NC(=O)O1)[C@H](OC)/C=C/C=C(\C)C2; 1Nal = N[C@@H](Cc1cccc2ccccc12)C(=O)O; TBMB = c1c(C[*:1])cc(C[*:3])cc1C[*:2]; Tle = CC(C)(C)[C@H](N)C(=O)O; ξA = CC(N)C(=O)O; Sar = CNCC(=O)O

Columns and labels:
[1] = tested on: EBC-1 xenograft; test: Efficacy of BT1721 in EBC-1 xenograft model (Example 6); type: in vivo, Mus Musculus; conditions: for Tumor Size: Mean ± SEM
Method: The objective of this study was to evaluate the anti-tumor efficacy of BT1721 in EBC-1 xenograft model in female BALB/c nude mice.
The EBC-1 tumor cells were maintained in vitro as a monolayer culture in RPMI1640 medium supplemented with 10% heat inactivated fetal bovine serum at 37° C. in an atmosphere of 5% CO2 in air. The tumor cells were routinely subcultured twice weekly by trypsin-EDTA treatment. The cells growing in an exponential growth phase were harvested and counted for tumor inoculation.
Each mouse was inoculated subcutaneously at the right flank with EBC-1 tumor cells (10×10^6) in 0.2 ml of PBS for tumor development. The treatments were started on Day 7 after the tumor inoculation when the average tumor size reached approximately 152 mm^3. Each group consisted of 3 tumor-bearing mice. The testing articles were administrated to the mice according to the predetermined regimen as shown in the experimental design (Table 43).
(§1) All the procedures related to animal handling, care and the treatment in the study were performed according to the guidelines of the Association for Assessment and Accreditation of Laboratory Animal Care (AAALAC). At the time of routine monitoring, the animals were daily checked for any effects of tumor growth and treatments on normal behavior such as mobility, food and water consumption (by looking only), body weight gain/loss (body weights were measured every day), eye/hair matting and any other abnormal effect as stated in the protocol. Death and observed clinical signs were recorded on the basis of the numbers of animals within each subset.
(§2) The major endpoint was to see if the tumor growth could be delayed or mice could be cured. Tumor size was measured three times weekly in two dimensions using a caliper, and the volume was expressed in mm^3 using the formula: V=0.5 a×b^2 where a and b are the long and short diameters of the tumor, respectively. The tumor size was then used for calculations of T/C value. The T/C value (in percent) is an indication of antitumor effectiveness; T and C are the mean volumes of the treated and control groups, respectively, on a given day.
(§3) TGI was calculated for each group using the formula: TGI (%)=[1−(Ti−T0)/(Vi−V0)]×100; Ti is the average tumor volume of a treatment group on a given day, T0 is the average tumor volume of the treatment group on the day of treatment start, Vi is the average tumor volume of the vehicle control group on the same day with Ti, and V0 is the average tumor volume of the vehicle group on the day of treatment start.
Summary statistics, including mean and the standard error of the mean (SEM), are provided for the tumor volume of each group at each time point.
Statistical analysis of difference in tumor volume among the groups was conducted on the data obtained at the best therapeutic time point after the final dose.
A one-way ANOVA was performed to compare tumor volume among groups, and when a significant F-statistics (a ratio of treatment variance to the error variance) was obtained, comparisons between groups were carried out with Games-Howell test. All data were analyzed using Prism. P<0.05 was considered to be statistically significant.

[2] = tested on: HT1080 cell line; test: In vitro cytotoxicity, ATP endpoint assay after 72 hours incubation; type: cell-based; conditions: ATP endpoint, HT-1080 cells
Method: To evaluate the in vitro cytotoxicity of BT1718 and BT1721 in an HT1080 cell line using an ATP endpoint assay after 72 hours incubation.
Cells were seeded in 96 well plates (75 μl/well, HT1080=7500−15000 cell/well) and incubated overnight at 37° C.+5% CO2.
The day after cell seeding, serial dilutions (1:5) of BT1718 and BT1721 were prepared in DMSO and diluted 1:71 in cell culture media to give 4× final concentrations. Twenty five μl/well was added to the cells (2 μM or 5 μM top final concentration of BT1718 and 2 μM or 5 μM top final concentration of BT1721, <0.6% final DMSO).
Cells were 30-50% confluent upon dosing. Control wells containing 5 μM final concentration of staurosporine (positive control), lysis buffer (1% NP40, 20 mM Tris pH8, 137 mM NaCl, 10% glycerol, 2 mM EDTA, 1 mM Na Orthovanadate, 10 μg/ml leupeptin, 10 μg/ml aprotinin) positive control or media (negative control), were also included. Plates were sealed with gas permeable seals and incubated at 37° C.+5% CO2 for 72 hours. No wash steps were performed.
After a total of 72 hours after dosing, ATPLite reagent (Perkin Elmer) was equilibrated to room temperate and reconstituted in the supplied buffer as per the manufacturer's instructions. One hundred μl 1× detection reagent was added per well. Plates were sealed, protected from light and shaken gently for 20 minutes to ensure complete cell lysis before luminescence was read using a BMG Pherastar FS plate reader. […] Data was analysed using GraphPad Prism. Non-linear regression fit was used to calculate a relative IC50 for each toxic agent: Y=Bottom+(Top−Bottom)/(1+10^((Log Ic50−X)*HillSlope)) where the IC50 is defined as 50% of the total cell kill achieved at the top concentration of toxin.

[3] = tested on: LU-01-0486 PDX model; type: in vivo, Mus Musculus; conditions: Docetaxel group
Method: The objective of this study was to evaluate the in vivo anti-tumor efficacy of BT1718 in the treatment of MT1-MMP low-expressing LU-01-0486 PDX model in female Balb/C nude mice
Each mouse was inoculated subcutaneously at the right flank with LU-01-0486 of tumor fragment (30 mm^3) for tumor development. The treatments was started when the average tumor volume reaches 164 mm^3.
as §1, with “following” for “according to”, “guidance” for “guidelines”, “twice weekly),” for “every day),”
as §2, with “two” for “three”, “The T/C value (in percent) is an indication of antitumor effectiveness; T and C are the mean volumes of the treated and control groups, respectively, on a given day.” left out
as §3, with “start. […]” for “start.”
A one-way ANOVA was performed to compare tumor volume among groups, and when a significant F-statistics (a ratio of treatment variance to the error variance) was obtained, comparisons between groups were carried out with Games-Howell test. All data were analyzed using Prism. […]

COc1cc2cc(c1Cl)N(C)C(=O)C[C@H](OC(=O)[C@H](C)N(C)C(=O)CCSC1CC(=O)N(CC3CCC(C(=O)NCCCC[C@H](NC(C)=O)C(=O)NCC(=O)N(C)CC(=O)N(C)CC(=O)N(C)CC(=O)N(C)CC(=O)N(C)CC(=O)N(C)CC(=O)N(C)CC(=O)N(C)CC(=O)N(C)CC(=O)N(C)CC(=O)NC(C)C(=O)N[C@H]4CSCc5cc6cc(c5)CSC[C@H](NC(=O)[C@@H](C)NC(=O)[C@H](Cc5cccc7ccccc57)NC(=O)[C@H](CCC(=O)O)NC(=O)[C@H](CC(N)=O)NC(=O)[C@@H](C)NC4=O)C(=O)N[C@@H](CCC(=O)O)C(=O)N[C@@H](CC(=O)O)C(=O)N[C@@H](Cc4ccccc4)C(=O)N[C@@H](Cc4ccc(O)cc4)C(=O)N[C@@H](CC(=O)O)C(=O)N[C@@H](C(C)(C)C)C(=O)N[C@H](C(N)=O)CSC6)CC3)C1=O)[C@@]1(C)O[C@H]1[C@H](C)[C@@H]1C[C@@](O)(NC(=O)O1)[C@H](OC)/C=C/C=C(\C)C2 (some centres unmarked) [BT1721] (Ac-K(X2)G[Sar][Sar][Sar][Sar][Sar][Sar][Sar][Sar][Sar][Sar][ξA]C[dA]NE[1Nal][dA]CEDFYD[Tle]C-NH2; linker 14-20-27 via TBMB)
effect on tumor growth ([1]; 1 mg/kg, 3 mg/kg and 10 mg/kg, day 14): didn't show any inhibitory effect on tumor growth | tumor volume trace over time ([1]; 1 mg/kg, tiw, day 0): 164 ± 31 mm^3 | tumor volume trace over time ([1]; 1 mg/kg, tiw, day 2): 291 ± 57 mm^3 | tumor volume trace over time ([1]; 1 mg/kg, tiw, day 4): 367 ± 68 mm^3 | tumor volume trace over time ([1]; 1 mg/kg, tiw, day 7): 640 ± 39 mm^3 | tumor volume trace over time ([1]; 1 mg/kg, tiw, day 9): 784 ± 40 mm^3 | tumor volume trace over time ([1]; 1 mg/kg, tiw, day 11): 874 ± 50 mm^3 | T/C ([1]; 1 mg/kg, tiw, day 14): 22% | TGI ([1]; 1 mg/kg, tiw, day 14): 82% | tumor volume trace over time ([1]; 1 mg/kg, tiw, day 14): 981 ± 47 mm^3 | Tumor Size ([1]; 1 mg/kg, tiw, day 14): 981 ± 47 mm^3 | tumor volume trace over time ([1]; 3 mg/kg, tiw, day 0): 142 ± 18 mm^3 | tumor volume trace over time ([1]; 3 mg/kg, tiw, day 2): 207 ± 60 mm^3 | tumor volume trace over time ([1]; 3 mg/kg, tiw, day 4): 310 ± 61 mm^3 | tumor volume trace over time ([1]; 3 mg/kg, tiw, day 7): 531 ± 116 mm^3 | tumor volume trace over time ([1]; 3 mg/kg, tiw, day 9): 708 ± 132 mm^3 | tumor volume trace over time ([1]; 3 mg/kg, tiw, day 11): 761 ± 147 mm^3 | T/C ([1]; 3 mg/kg, tiw, day 14): 26% | TGI ([1]; 3 mg/kg, tiw, day 14): 77% | tumor volume trace over time ([1]; 3 mg/kg, tiw, day 14): 920 ± 210 mm^3 | Tumor Size ([1]; 3 mg/kg, tiw, day 14): 920 ± 210 mm^3 | effect on tumor growth ([1]; 10 mg/kg tiw): did not show any inhibitory effect on tumor growth | tumor volume trace over time ([1]; 10 mg/kg, tiw, day 0): 160 ± 25 mm^3 | tumor volume trace over time ([1]; 10 mg/kg, tiw, day 2): 249 ± 82 mm^3 | tumor volume trace over time ([1]; 10 mg/kg, tiw, day 4): 407 ± 85 mm^3 | tumor volume trace over time ([1]; 10 mg/kg, tiw, day 7): 632 ± 149 mm^3 | tumor volume trace over time ([1]; 10 mg/kg, tiw, day 9): 735 ± 201 mm^3 | tumor volume trace over time ([1]; 10 mg/kg, tiw, day 11): 858 ± 72 mm^3 | T/C ([1]; 10 mg/kg, tiw, day 14): 6% | TGI ([1]; 10 mg/kg, tiw, day 14): 96% | tumor volume trace over time ([1]; 10 mg/kg, tiw, day 14): 1142 ± 147 mm^3 | Tumor Size ([1]; 10 mg/kg, tiw, day 14): 1142 ± 147 mm^3 | Body Weight ([1]; 1 mpk, tiw, day 0): 22.2 ± 0.7 g | Body Weight (% Change) ([1]; 1 mpk, tiw, day 0): 0.0% | Body Weight ([1]; 1 mpk, tiw, day 2): 22.0 ± 0.5 g | Body Weight (% Change) ([1]; 1 mpk, tiw, day 2): −1.1 ± 0.7% | Body Weight ([1]; 1 mpk, tiw, day 4): 22.4 ± 0.8 g | Body Weight (% Change) ([1]; 1 mpk, tiw, day 4): 0.8 ± 2.3% | Body Weight ([1]; 1 mpk, tiw, day 7): 22.5 ± 0.9 g | Body Weight (% Change) ([1]; 1 mpk, tiw, day 7): 1.3 ± 1.4% | Body Weight ([1]; 1 mpk, tiw, day 9): 23.2 ± 0.8 g | Body Weight (% Change) ([1]; 1 mpk, tiw, day 9): 4.4 ± 0.8% | Body Weight ([1]; 1 mpk, tiw, day 11): 22.9 ± 1.0 g | Body Weight (% Change) ([1]; 1 mpk, tiw, day 11): 3.1 ± 1.7% | Body Weight ([1]; 1 mpk, tiw, day 14): 23.3 ± 1.1 g | Body Weight (% Change) ([1]; 1 mpk, tiw, day 14): 4.6 ± 2.0% | Body Weight ([1]; 3 mpk tiw, day 0): 22.9 ± 0.4 g | Body Weight (% Change) ([1]; 3 mpk tiw, day 0): 0.0% | Body Weight ([1]; 3 mpk tiw, day 2): 22.3 ± 0.6 g | Body Weight (% Change) ([1]; 3 mpk tiw, day 2): −2.8 ± 1.3% | Body Weight ([1]; 3 mpk tiw, day 4): 22.3 ± 0.8 g | Body Weight (% Change) ([1]; 3 mpk tiw, day 4): −2.8 ± 1.9% | Body Weight ([1]; 3 mpk tiw, day 7): 23.1 ± 0.7 g | Body Weight (% Change) ([1]; 3 mpk tiw, day 7): 0.8 ± 1.8% | Body Weight ([1]; 3 mpk tiw, day 9): 23.9 ± 1.0 g | Body Weight (% Change) ([1]; 3 mpk tiw, day 9): 4.0 ± 2.8% | Body Weight ([1]; 3 mpk tiw, day 11): 24.0 ± 1.0 g | Body Weight (% Change) ([1]; 3 mpk tiw, day 11): 4.7 ± 2.7% | Body Weight ([1]; 3 mpk tiw, day 14): 24.6 ± 1.0 g | Body Weight (% Change) ([1]; 3 mpk tiw, day 14): 7.2 ± 2.9% | Body Weight ([1]; 10 mpk tiw, day 0): 23.2 ± 0.5 g | Body Weight (% Change) ([1]; 10 mpk tiw, day 0): 0.0% | Body Weight ([1]; 10 mpk tiw, day 2): 23.2 ± 0.3 g | Body Weight (% Change) ([1]; 10 mpk tiw, day 2): 0.0 ± 1.5% | Body Weight ([1]; 10 mpk tiw, day 4): 23.2 ± 0.4 g | Body Weight (% Change) ([1]; 10 mpk tiw, day 4): −0.3 ± 0.5% | Body Weight ([1]; 10 mpk tiw, day 7): 23.9 ± 0.5 g | Body Weight (% Change) ([1]; 10 mpk tiw, day 7): 2.8 ± 0.6% | Body Weight ([1]; 10 mpk tiw, day 9): 24.4 ± 0.4 g | Body Weight (% Change) ([1]; 10 mpk tiw, day 9): 5.1 ± 0.6% | Body Weight ([1]; 10 mpk tiw, day 11): 24.4 ± 0.6 g | Body Weight (% Change) ([1]; 10 mpk tiw, day 11): 5.0 ± 0.3% | Body Weight ([1]; 10 mpk tiw, day 14): 25.3 ± 0.5 g | Body Weight (% Change) ([1]; 10 mpk tiw, day 14): 8.8 ± 0.7% | body weight effect ([1]; mouse, in vivo): maintained their bodyweight well | IC50 [2]: 8.9 nM

CC(=O)O[C@@]12CO[C@@H]1C[C@H](O)[C@@]1(C)C(=O)[C@H](O)C3=C(C)[C@@H](OC(=O)[C@H](O)[C@@H](NC(=O)OC(C)(C)C)c4ccccc4)C[C@@](O)([C@@H](OC(=O)c4ccccc4)[C@H]21)C3(C)C [Docetaxel, reference compound]
tumor growth [3]: significant inhibition of tumor growth
